Reference: patent US20260184748A1, “COMPOSITIONS COMPRISING OCTADECANEUROPEPTIDES (ODN) AND SYNTHETIC DERIVATIVES THEREOF AND METHODS OF USE FOR MODULATION OF FOOD INTAKE, OBESITY, BODY WEIGHT, NAUSEA, AND EMESIS” (The Trustees of the University of Pennsylvania, priority 2022, published 2026)
Where no end group is shown, it is not given here.

How the values were obtained:
Test in all cases: Arrestin agonist mode
Assay type in all cases: cell-based
[1] = target: EBI2 (Homo sapiens, UniProt P32249)
Sequence of EBI2 (P32249 whole entry): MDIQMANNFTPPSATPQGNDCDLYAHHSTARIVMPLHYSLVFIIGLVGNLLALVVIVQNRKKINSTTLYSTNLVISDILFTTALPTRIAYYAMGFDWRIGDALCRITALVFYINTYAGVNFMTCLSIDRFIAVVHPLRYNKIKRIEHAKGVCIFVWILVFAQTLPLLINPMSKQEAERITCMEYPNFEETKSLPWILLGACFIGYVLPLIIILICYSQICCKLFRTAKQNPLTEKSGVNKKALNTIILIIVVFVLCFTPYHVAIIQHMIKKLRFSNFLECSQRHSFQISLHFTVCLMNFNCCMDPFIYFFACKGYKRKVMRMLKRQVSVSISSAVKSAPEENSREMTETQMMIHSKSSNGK

[2] = target: FFAR1 (Homo sapiens, UniProt O14842); conditions: read-out: RC50 (the source's name)
Sequence of FFAR1 (O14842 whole entry): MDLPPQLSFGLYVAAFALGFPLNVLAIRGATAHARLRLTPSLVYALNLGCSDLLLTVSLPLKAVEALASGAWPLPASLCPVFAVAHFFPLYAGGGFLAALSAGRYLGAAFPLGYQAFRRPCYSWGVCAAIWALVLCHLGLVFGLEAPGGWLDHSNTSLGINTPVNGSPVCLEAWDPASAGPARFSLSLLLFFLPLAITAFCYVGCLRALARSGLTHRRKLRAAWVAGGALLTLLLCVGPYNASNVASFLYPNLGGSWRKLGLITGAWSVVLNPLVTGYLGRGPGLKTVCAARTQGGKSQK

[3] = target: CRTH2 (Homo sapiens, UniProt Q9Y5Y4); conditions: read-out: RC50 (the source's name)
Sequence of CRTH2 (Q9Y5Y4 whole entry): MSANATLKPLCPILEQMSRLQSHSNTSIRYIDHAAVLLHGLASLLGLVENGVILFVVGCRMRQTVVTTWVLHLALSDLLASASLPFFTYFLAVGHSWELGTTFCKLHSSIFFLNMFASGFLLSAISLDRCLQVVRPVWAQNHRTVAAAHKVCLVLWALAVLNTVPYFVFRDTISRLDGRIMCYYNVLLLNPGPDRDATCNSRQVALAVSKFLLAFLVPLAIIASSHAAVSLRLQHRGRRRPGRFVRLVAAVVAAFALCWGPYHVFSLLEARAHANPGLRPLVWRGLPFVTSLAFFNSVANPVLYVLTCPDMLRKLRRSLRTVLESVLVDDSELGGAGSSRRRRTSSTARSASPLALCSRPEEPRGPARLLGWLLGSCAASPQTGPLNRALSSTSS

[4] = target: EDG1 (Homo sapiens, UniProt P21453); conditions: read-out: RC50 (the source's name)
Sequence of EDG1 (P21453 whole entry): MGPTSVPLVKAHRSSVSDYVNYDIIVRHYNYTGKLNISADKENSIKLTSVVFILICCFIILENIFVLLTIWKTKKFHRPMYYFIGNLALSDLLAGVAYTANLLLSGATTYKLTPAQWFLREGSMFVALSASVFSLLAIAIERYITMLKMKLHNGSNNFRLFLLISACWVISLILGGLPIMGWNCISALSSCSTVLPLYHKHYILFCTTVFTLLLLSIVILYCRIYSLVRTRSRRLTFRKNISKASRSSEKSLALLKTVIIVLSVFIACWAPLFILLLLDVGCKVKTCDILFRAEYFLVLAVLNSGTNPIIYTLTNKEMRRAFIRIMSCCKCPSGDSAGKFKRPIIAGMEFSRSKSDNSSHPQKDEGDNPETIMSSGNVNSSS

[5] = target: EDG3 (Homo sapiens, UniProt Q99500); conditions: read-out: RC50 (the source's name)
Sequence of EDG3 (Q99500 whole entry): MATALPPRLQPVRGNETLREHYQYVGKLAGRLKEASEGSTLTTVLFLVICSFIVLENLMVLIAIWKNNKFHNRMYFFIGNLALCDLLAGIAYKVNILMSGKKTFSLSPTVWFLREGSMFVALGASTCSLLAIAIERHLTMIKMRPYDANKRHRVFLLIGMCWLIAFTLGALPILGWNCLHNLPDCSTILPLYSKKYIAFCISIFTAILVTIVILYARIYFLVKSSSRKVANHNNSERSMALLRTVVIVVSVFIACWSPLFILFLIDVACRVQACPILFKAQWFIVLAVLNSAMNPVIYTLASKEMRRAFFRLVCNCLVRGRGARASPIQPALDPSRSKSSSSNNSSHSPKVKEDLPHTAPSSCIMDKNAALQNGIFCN

[6] = target: EDG6 (Homo sapiens, UniProt O95977); conditions: read-out: RC50 (the source's name)
Sequence of EDG6 (O95977 whole entry): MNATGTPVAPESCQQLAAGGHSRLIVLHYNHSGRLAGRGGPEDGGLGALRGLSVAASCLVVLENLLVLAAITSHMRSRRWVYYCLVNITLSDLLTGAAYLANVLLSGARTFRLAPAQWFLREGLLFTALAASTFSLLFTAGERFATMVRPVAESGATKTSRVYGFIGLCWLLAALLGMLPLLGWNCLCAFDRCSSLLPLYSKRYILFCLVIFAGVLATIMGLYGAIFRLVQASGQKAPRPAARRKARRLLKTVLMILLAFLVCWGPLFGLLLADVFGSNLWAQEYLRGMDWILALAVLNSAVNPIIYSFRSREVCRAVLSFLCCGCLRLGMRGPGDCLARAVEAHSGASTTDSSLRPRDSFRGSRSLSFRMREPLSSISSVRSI

[7] = target: T1, CCR1 (Homo sapiens, UniProt P32246); conditions: read-out: RC50 (the source's name)
T1 sequence (P32246 1-355): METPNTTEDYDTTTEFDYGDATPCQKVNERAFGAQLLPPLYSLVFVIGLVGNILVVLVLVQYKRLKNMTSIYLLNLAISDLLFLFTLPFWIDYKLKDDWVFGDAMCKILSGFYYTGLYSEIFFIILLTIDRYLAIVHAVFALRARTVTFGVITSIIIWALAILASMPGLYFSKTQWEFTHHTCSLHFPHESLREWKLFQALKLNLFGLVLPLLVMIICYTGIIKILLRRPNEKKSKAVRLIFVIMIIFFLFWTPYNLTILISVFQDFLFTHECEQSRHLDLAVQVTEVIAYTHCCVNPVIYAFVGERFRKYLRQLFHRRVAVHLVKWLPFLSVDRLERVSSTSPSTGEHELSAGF

[8] = target: CCR5 (Homo sapiens, UniProt P51681); conditions: read-out: RC50 (the source's name)
Sequence of CCR5 (P51681 whole entry): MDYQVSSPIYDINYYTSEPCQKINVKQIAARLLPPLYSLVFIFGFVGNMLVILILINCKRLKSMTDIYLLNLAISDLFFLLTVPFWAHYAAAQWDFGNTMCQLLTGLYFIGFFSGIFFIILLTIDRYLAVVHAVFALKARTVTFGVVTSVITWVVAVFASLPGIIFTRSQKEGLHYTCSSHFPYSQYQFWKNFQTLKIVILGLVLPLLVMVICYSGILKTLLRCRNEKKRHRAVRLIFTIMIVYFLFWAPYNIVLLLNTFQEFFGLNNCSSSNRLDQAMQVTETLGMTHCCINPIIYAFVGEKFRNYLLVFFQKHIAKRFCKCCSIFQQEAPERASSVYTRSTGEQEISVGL

[9] = target: T2, CCR3 (Homo sapiens, UniProt P51677); conditions: read-out: RC50 (the source's name)
T2 sequence (P51677 1-355): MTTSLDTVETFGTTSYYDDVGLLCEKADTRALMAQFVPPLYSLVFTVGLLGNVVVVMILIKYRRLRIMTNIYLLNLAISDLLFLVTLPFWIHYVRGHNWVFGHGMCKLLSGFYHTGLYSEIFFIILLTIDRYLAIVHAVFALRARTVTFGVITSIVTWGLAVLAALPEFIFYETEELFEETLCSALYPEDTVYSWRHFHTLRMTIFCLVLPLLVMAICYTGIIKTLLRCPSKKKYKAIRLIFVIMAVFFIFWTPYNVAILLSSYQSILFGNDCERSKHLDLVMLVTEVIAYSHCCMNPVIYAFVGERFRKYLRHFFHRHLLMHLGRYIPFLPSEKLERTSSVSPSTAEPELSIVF

[10] = target: T3, CCR7 (Homo sapiens, UniProt P32248); conditions: read-out: RC50 (the source's name)
T3 sequence (P32248 25-378): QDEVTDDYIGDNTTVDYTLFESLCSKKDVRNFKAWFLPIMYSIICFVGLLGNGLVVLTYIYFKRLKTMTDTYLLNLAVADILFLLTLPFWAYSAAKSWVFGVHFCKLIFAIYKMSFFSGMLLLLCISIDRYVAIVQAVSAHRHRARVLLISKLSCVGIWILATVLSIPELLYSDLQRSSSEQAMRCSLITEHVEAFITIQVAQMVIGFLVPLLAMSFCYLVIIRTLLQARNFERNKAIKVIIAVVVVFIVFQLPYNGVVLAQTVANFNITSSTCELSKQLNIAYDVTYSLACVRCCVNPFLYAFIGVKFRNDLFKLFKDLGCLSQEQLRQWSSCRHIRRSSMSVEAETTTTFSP

[11] = target: T4, CCR6 (Homo sapiens, UniProt P51684); conditions: read-out: RC50 (the source's name)
T4 sequence (P51684 1-374): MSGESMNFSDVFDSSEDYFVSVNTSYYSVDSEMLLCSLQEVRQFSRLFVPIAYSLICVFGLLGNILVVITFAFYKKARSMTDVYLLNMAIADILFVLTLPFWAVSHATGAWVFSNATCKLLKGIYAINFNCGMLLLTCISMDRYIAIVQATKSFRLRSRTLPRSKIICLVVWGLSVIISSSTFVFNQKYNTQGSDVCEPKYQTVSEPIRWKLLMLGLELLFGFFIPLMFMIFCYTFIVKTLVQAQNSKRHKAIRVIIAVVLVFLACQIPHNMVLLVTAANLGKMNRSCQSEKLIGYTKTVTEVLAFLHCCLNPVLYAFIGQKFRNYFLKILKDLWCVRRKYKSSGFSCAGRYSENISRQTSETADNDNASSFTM

[12] = target: T5, CXCR2 (Homo sapiens, UniProt P25025); conditions: read-out: RC50 (the source's name)
T5 sequence (P25025 1-360): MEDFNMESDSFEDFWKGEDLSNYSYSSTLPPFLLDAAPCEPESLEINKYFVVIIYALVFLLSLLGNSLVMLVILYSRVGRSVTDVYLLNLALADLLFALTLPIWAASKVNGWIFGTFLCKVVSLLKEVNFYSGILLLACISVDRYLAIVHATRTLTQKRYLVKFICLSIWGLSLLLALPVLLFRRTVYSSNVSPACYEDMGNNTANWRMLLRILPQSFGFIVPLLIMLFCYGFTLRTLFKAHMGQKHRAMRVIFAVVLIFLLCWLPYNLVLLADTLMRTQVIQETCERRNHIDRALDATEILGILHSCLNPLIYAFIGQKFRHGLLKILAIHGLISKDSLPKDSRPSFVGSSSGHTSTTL

[13] = target: T6, CXCR1 (Homo sapiens, UniProt P25024); conditions: read-out: RC50 (the source's name)
T6 sequence (P25024 1-350): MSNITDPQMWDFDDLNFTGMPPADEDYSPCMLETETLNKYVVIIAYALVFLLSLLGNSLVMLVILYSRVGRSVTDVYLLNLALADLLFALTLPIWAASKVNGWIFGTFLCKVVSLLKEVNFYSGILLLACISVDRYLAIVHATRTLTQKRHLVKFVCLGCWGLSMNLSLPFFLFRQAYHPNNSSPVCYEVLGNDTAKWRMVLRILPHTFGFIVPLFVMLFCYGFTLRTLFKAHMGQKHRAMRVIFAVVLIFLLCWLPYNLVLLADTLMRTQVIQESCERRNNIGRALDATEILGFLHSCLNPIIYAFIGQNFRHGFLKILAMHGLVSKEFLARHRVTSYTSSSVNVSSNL

[14] = target: T7, CXCR3 (Homo sapiens, UniProt P49682); conditions: read-out: RC50 (the source's name)
T7 sequence (P49682 1-368): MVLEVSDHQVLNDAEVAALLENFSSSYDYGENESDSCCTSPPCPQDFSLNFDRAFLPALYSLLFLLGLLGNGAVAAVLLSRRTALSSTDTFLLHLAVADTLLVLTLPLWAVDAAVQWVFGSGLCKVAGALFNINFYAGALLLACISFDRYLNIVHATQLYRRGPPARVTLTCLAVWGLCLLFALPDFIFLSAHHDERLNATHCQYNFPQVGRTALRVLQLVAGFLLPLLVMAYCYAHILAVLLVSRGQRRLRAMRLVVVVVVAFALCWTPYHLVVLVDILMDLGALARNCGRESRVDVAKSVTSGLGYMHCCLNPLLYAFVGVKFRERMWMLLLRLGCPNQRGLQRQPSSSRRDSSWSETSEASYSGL

[15] = target: T8, CXCR5 (Homo sapiens, UniProt P32302); conditions: read-out: RC50 (the source's name)
T8 sequence (P32302 1-372): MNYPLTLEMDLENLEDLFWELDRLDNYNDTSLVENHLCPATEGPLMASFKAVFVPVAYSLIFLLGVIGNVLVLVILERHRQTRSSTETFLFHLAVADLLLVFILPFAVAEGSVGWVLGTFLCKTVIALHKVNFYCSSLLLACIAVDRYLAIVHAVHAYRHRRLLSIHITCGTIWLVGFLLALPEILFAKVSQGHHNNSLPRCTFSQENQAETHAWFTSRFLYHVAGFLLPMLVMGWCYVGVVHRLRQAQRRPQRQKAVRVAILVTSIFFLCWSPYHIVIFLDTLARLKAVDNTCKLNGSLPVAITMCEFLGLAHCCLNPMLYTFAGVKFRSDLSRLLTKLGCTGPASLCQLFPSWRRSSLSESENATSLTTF

[16] = target: T9, GPR1 (Homo sapiens, UniProt P46091); conditions: read-out: RC50 (the source's name)
T9 sequence (P46091 1-355): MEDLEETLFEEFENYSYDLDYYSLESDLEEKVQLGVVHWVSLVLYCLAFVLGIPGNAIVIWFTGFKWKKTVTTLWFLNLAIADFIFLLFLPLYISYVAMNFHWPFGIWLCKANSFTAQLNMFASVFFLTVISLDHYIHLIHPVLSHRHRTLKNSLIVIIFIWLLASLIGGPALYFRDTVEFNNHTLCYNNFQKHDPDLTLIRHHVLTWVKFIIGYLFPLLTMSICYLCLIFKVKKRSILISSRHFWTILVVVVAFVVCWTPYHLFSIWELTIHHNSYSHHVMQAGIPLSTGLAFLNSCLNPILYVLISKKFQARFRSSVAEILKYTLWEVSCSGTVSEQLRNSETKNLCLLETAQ

[17] = target: T10, CX3CR1 (Homo sapiens, UniProt P49238); conditions: read-out: RC50 (the source's name)
T10 sequence (P49238 1-355): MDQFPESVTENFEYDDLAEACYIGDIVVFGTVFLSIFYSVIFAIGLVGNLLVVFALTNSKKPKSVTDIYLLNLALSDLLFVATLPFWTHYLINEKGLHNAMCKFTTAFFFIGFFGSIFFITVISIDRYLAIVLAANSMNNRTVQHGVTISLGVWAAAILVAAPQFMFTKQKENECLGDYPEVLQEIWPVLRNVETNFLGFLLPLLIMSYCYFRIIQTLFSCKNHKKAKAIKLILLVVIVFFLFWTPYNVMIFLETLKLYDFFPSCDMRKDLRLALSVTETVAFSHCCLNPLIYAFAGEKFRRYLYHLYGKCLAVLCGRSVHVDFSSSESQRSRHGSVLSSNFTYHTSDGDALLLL

[18] = target: GPR103 (Homo sapiens, UniProt Q96P65); conditions: read-out: RC50 (the source's name)
Sequence of GPR103 (Q96P65 whole entry): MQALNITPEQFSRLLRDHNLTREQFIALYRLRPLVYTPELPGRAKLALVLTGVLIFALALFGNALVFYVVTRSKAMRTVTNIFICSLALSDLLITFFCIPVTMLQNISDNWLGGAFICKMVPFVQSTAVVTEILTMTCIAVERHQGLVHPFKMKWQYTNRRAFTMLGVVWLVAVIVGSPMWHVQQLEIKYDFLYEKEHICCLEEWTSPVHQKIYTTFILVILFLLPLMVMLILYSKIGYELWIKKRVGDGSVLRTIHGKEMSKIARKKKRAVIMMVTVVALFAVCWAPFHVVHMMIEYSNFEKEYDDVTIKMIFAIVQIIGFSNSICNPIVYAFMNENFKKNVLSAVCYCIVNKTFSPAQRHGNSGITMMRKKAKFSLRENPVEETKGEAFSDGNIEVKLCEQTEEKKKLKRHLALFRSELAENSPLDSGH

`C[C@H](CCCC(C)(C)O)[C@H]1CC[C@H]2[C@@H]3[C@H](O)C=C4C[C@@H](O)CC[C@]4(C)[C@H]3CC[C@]12C` [7a,25-Dihydroxycholesterol] was tested, and the EC50 [1] was 3.63 nM.
`O=C(O)CCc1ccc(NCc2cccc(Oc3ccccc3)c2)cc1` [GW9508] was tested, and the EC50 [2] was 959 nM.
`CCCCC[C@H](O)/C=C/[C@H]1C(=O)C[C@H](O)[C@@H]1C/C=C\CCCC(=O)O` [PGD2] gave an EC50 [3] of 3.34 nM.
`CCCCCCCCCCCCC/C=C/[C@@H](O)[C@@H](N)COP(=O)(O)O` [S-1-P] showed an EC50 [4] of 19 nM, an EC50 [5] of 10.6 nM and an EC50 [6] of 30.5 nM.
In the case of CCL3: control agonist, the EC50 [7] is reported as 1.04 nM and the EC50 [8] is reported as 7.55 nM.
Work on CCL13: control agonist yielded an EC50 [9] of 40.6 nM.
Work on CCL19: control agonist yielded an EC50 [10] of 5.65 nM.
With CCL20: control agonist the EC50 [11] was 2.95 nM.
With CXCL8: control agonist the EC50 [12] was 0.304 nM and the EC50 [13] was 2.8 nM.
CXCL11: control agonist was tested, and the EC50 [14] was 12 nM.
With CXCL13: control agonist the EC50 [15] was 21 nM.
Chemerin: control agonist was tested, and the EC50 [16] was 2.26 nM.
Fractalkine: control agonist showed an EC50 [17] of 0.444 nM.
Work on “TSGPLGNLAEELNGYSRKKGGFSFRF-NH2 (C-terminus assumed) [QRFP-26]” yielded an EC50 [18] of 10 nM.
